Biological target: the molecule itself
Experiment: SEC

B1: Ca^2+-binding mutant FCaBP^E151Q/E188Q, recombinant (natural protein)
chain: MGACGSKGSTSDKGLASDKDGKKAKDRKEAWERIRQAIPREKTAEAKQRRIELFKKFDKNETGKLCYDEVHSGCLEVLKLDEFTPRVRDITKRAFDKARALGSKLENKGSEDFVEFLEFRLMLCYIYDFFELTVMFDEIDASGNMLVDEEQLKRAVPKLEAWGAKVEDPAALFKELDKNGTGSVTFDQFAAWASAVKLDADGDPDNVPESA
With B1 the “stoichiometry N” value was 2.

From paper PMC4532613 (Molecular and biochemical parasitology, 2015)
